One block for each binder: values may come before it.
Columns and labels:
[1] = target: T1, RhlB, individually prepared recombinant (E. coli, UniProt P0A8J8 1-421); test: cross-linking
T1 sequence: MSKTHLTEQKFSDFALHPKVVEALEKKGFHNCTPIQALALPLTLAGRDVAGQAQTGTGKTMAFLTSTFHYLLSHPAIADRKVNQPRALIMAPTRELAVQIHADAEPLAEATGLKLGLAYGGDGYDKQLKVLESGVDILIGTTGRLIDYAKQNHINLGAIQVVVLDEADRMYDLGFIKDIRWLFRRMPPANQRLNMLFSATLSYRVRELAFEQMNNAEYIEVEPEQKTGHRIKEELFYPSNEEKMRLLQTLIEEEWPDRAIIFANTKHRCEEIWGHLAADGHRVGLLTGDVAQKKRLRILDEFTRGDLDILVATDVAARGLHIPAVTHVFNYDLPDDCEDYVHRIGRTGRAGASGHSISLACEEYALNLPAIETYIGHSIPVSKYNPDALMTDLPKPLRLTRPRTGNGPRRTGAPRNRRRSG

[2] = target: RNase E(1–762), hexahistidine-tagged, coexpressed with RhlB (E. coli) (UniProt P21513); test: pull-down + SEC
[3] = target: RNase E, genomically encoded, C-terminally FLAG-tagged (rne-FLAG, strain TM522) (E. coli K12, UniProt P21513 1-1061); test: co-IP
RNase E, genomically encoded, C-terminally FLAG-tagged (rne-FLAG, strain TM522), sequence (P21513 whole entry): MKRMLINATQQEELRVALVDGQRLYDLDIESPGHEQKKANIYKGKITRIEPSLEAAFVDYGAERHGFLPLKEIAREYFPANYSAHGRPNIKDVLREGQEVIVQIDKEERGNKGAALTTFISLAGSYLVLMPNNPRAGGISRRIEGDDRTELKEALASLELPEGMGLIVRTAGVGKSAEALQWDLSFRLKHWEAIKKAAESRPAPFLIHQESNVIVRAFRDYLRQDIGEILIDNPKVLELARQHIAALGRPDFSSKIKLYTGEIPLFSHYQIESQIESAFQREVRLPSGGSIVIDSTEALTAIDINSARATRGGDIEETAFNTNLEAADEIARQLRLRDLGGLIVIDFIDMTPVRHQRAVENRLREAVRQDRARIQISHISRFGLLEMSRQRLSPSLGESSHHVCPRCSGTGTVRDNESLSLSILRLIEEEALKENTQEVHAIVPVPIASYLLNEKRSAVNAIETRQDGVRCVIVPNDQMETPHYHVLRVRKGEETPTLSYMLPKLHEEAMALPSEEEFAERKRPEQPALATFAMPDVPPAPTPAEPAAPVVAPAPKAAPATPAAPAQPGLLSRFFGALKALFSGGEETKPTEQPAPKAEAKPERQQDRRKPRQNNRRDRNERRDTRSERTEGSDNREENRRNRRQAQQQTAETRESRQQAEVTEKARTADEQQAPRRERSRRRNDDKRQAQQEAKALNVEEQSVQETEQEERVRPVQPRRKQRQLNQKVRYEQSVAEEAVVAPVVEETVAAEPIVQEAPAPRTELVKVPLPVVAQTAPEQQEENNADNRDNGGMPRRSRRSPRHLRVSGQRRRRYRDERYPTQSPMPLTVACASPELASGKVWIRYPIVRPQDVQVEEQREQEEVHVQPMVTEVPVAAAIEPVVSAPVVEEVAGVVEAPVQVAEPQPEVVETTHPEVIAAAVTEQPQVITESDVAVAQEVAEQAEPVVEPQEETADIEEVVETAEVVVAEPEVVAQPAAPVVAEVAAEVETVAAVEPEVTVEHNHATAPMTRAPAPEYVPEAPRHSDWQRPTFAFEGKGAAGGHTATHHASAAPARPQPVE

RNase E(1–762), hexahistidine-tagged, coexpressed with RhlB (E. coli), sequence (P21513 1-762): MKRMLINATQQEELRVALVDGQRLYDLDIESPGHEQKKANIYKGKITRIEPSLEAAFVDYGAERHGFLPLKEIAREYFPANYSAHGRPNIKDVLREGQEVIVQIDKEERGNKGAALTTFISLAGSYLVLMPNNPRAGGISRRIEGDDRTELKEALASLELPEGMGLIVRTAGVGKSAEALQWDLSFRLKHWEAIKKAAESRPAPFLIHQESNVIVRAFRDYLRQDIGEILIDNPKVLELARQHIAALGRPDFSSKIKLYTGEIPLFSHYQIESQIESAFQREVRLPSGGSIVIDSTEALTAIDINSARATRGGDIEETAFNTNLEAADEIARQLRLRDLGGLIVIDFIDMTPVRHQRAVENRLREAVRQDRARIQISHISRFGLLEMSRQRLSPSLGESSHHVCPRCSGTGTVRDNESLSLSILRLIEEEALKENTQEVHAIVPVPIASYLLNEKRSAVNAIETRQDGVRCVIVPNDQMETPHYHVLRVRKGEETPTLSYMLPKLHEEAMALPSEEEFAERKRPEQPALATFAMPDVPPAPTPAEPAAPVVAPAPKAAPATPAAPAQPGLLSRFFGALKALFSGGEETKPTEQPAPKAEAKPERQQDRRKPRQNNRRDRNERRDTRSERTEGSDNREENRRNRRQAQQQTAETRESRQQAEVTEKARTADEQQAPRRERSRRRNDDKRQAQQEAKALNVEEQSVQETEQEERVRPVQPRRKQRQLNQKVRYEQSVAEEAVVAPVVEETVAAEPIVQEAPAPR

binding result [1]: binds
B1: RNase E(628–843) (domain or fragment)
chain: ERTEGSDNREENRRNRRQAQQQTAETRESRQQAEVTEKARTADEQQAPRRERSRRRNDDKRQAQQEAKALNVEEQSVQETEQEERVRPVQPRRKQRQLNQKVRYEQSVAEEAVVAPVVEETVAAEPIVQEAPAPRTELVKVPLPVVAQTAPEQQEENNADNRDNGGMPRRSRRSPRHLRVSGQRRRRYRDERYPTQSPMPLTVACASPELASGKVW

stoichiometry N (RhlB protomer per RNase E protomer) [2]: 1
B2: RNA helicase B (RhlB), recombinant, coexpressed with RNase E from pRSF_rnerhlB (enzyme)
chain: T1 sequence

PNPase component in aceE/aceF-null cells relative to wild-type control cells [3]: ~3 fold | stoichiometry N [3]: ~2 PNPase monomers per RNase E monomer
B3: PNPase, endogenous, in the cell-extracted FLAG-tagged degradosome (enzyme)
chain: MLNPIVRKFQYGQHTVTLETGMMARQATAAVMVSMDDTAVFVTVVGQKKAKPGQDFFPLTVNYQERTYAAGRIPGSFFRREGRPSEGETLIARLIDRPIRPLFPEGFVNEVQVIATVVSVNPQVNPDIVAMIGASAALSLSGIPFNGPIGAARVGYINDQYVLNPTQDELKESKLDLVVAGTEAAVLMVESEAQLLSEDQMLGAVVFGHEQQQVVIQNINELVKEAGKPRWDWQPEPVNEALNARVAALAEARLSDAYRITDKQERYAQVDVIKSETIATLLAEDETLDENELGEILHAIEKNVVRSRVLAGEPRIDGREKDMIRGLDVRTGVLPRTHGSALFTRGETQALVTATLGTARDAQVLDELMGERTDTFLFHYNFPPYSVGETGMVGSPKRREIGHGRLAKRGVLAVMPDMDKFPYTVRVVSEITESNGSSSMASVCGASLALMDAGVPIKAAVAGIAMGLVKEGDNYVVLSDILGDEDHLGDMDFKVAGSRDGISALQMDIKIEGITKEIMQVALNQAKGARLHILGVMEQAINAPRGDISEFAPRIHTIKINPDKIKDVIGKGGSVIRALTEETGTTIEIEDDGTVKIAATDGEKAKHAIRRIEEITAEIEVGRVYTGKVTRIVDFGAFVAIGGGKEGLVHISQIADKRVEKVTDYLQMGQEVPVKVLEVDRQGRIRLSIKEATEQSQPAAAPEAPAAEQGE

— publication PMC7611026 (Journal of molecular biology, 2008)
